Source: patent publication US20200339678A1 (RIGEL PHARMACEUTICALS, published 2020)
Residue numbers refer to the chain shown, from its start. Names may count otherwise. Read-outs that look alike come from different tables or passages of the source.

T1: His-tagged recombinant Human TIGIT (human, UniProt Q495A1 22-141)
T1 construct: coated antigen of the direct ELISA; not shown: His tag
T1 sequence (looked up): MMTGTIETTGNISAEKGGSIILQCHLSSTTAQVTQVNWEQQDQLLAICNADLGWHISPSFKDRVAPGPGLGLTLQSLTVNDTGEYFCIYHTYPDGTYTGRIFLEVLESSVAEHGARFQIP

T2: His-tagged recombinant Mouse TIGIT (mouse, UniProt P86176 29-148, limits assumed)
T2 construct: coated antigen of the direct ELISA; not shown: His tag
T2 sequence (looked up): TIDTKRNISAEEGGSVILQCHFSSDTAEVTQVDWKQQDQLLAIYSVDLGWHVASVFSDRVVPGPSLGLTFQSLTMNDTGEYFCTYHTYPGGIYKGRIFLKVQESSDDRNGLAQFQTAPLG

T3: biotinylated human TIGIT (human, UniProt Q495A1 22-141, biotinylated (EZ-Link NHS-PEG4-biotin kit))
T3 construct: extracellular domain; also called TIGIT-ECD
T3 sequence (looked up): T1 sequence (looked up)

T4: mouse TIGIT-Fc (mouse, UniProt P86176 29-148)
T4 construct: extracellular domain; also called TIGIT-ECD; not shown: Fc
T4 sequence (looked up): T2 sequence (looked up)

T5: human TIGIT fused to a beta galactosidase portion, on YTS cells (YTS_hTIGIT/hGrb2) (human, UniProt Q495A1 22-244)
T5 sequence (looked up): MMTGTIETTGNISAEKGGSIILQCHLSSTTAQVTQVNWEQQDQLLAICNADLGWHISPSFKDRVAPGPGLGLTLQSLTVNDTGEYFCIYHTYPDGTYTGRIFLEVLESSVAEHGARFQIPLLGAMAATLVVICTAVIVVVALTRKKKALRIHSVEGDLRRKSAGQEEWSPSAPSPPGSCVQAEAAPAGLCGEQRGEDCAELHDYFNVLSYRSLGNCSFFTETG

T6: human TIGIT fused to a beta galactosidase fragment, expressed on YTS cells (human, UniProt Q495A1 22-244)
T6 sequence (looked up): T5 sequence (looked up)

T7: mouse TIGIT-Fc (mouse, UniProt P86176 29-148)
T7 construct: extracellular domain; also called mouse TIGIT extra cellular domain
T7 sequence (looked up): T2 sequence (looked up)

T8: biotinylated human TIGIT (human, UniProt Q495A1 22-141, biotinylated (EZ-Link NHS-PEG4-biotin kit))
T8 construct: extracellular domain; also called human TIGIT extra cellular domain; TIGIT-ECD
T8 sequence (looked up): T1 sequence (looked up)

T9: His-tagged recombinant Mouse TIGIT (mouse, UniProt P86176 29-148, limits assumed)
T9 construct: Coated on the plate at 0.5 µg/mL in the direct ELISA; not shown: His tag
T9 sequence (looked up): T2 sequence (looked up)

T10: human TIGIT expressed in YTS cells, fused to a portion of beta galactosidase (human, UniProt Q495A1 22-244)
T10 sequence (looked up): T5 sequence (looked up)

T11: mouse TIGIT-Fc (mouse, UniProt P86176 29-148)
T11 construct: extracellular domain; also called mouse TIGIT-ECD; not shown: Fc
T11 sequence (looked up): T2 sequence (looked up)

T12: His-tagged recombinant Human TIGIT (human, UniProt Q495A1 22-141)
T12 construct: Coated on the plate at 0.5 µg/mL in the direct ELISA; also called hTIGIT; not shown: His tag
T12 sequence (looked up): T1 sequence (looked up)

T13: biotinylated human TIGIT extra cellular domain (human, UniProt Q495A1 22-141, biotinylated using the EZ-Link NHS-PEG4-biotin kit)
T13 construct: extracellular domain; also called human TIGIT-ECD
T13 sequence (looked up): T1 sequence (looked up)

B1: Ab40i6 (antibody, V domains shown)
VH: EVQLLESGGGLVQPGGSLRLSCAASGFTFSSYGMNWVRQAPGKGLEWVAGIKSSSGNKYYADSVKGRFTISRDNSKNTLYLQMNSLRAEDTAVYYCARGPYDVWMDYWGQGTLVTVSS
VL: not shown
notes: hIgG1 of Ab40, Y52aS
B2: Ab48 (Fab, V domains shown)
VH: B1 VH with G33S, G50N, S55G, G56S, N57S, K58T, Y59S
VL: not shown
notes: clone from a phage library of monovalent human Fabs; also called clone Ab48
B3: Ab40i5 (antibody, V domains shown)
VH: B1 VH with G33S
VL: not shown
B4: Ab117 (Fab, V domains shown)
VH: B1 VH with G33A, N35S, G50A, S55A, G56S, N57T, K58I, G99E, D102S
VL: not shown
notes: ARE
B5: Ab53i3 (antibody, V domains shown)
VH: B1 VH with N35H, G50S, G56S, M105L
VL: not shown
notes: hIgG1 of Ab53, S33G
B6: Ab143 (Fab, V domains shown)
VH: EVQLLESGGGLVQPGGSLRLSCAASGFTFSSYSMHWVRQAPGKGLEWVAAINSNAGSSSYADSVKGRFTISRDNSKNTLYLQMNSLRAEDTAVYYCARVPYGVWMDYWGQGTLVTVSS
VL: not shown
notes: ARV
B7: Ab48i1 (antibody, V domains shown)
VH: B1 VH with G33S, G50N, S55G, G56S, N57S, K58T, Y59S
VL: not shown
notes: hIgG1 of Ab48
B8: Ab40i7 (antibody, V domains shown)
VH: B1 VH
VL: not shown
notes: mIgG2a of Ab40, Y52aS
B9: Ab1 (Fab, V domains shown)
VH: B6 VH with S33A, A49S, A50G, N52S, A55G, S58T, G102S, M105I
VL: not shown
notes: clone from a phage library of monovalent human Fabs; also called clone Ab1
B10: Ab143 (Fab, V domains shown)
VH: B6 VH
VL: not shown
notes: clone from a phage library of monovalent human Fabs; also called clone Ab143
B11: Ab117 (Fab, V domains shown)
VH: B1 VH with G33A, N35S, G50A, S55A, G56S, N57T, K58I, G99E, D102S
VL: not shown
notes: clone from a phage library of monovalent human Fabs; also called clone Ab117
B12: Ab53i2 (antibody, V domains shown)
VH: B1 VH with G33S, N35H, G50S, G56S, M105L
VL: not shown
notes: hIgG1 of Ab53
B13: Ab40 (Fab, V domains shown)
VH: B1 VH with S53Y
VL: not shown
notes: clone from a phage library of monovalent human Fabs; also called clone Ab40
B14: Ab53i4 (antibody, V domains shown)
VH: B1 VH with N35H, G50S, G56S, M105L
VL: not shown
notes: mIgG2a of Ab53, S33G
B15: Ab53i1 (antibody, V domains shown)
VH: B1 VH with G33S, N35H, G50S, G56S, M105L
VL: not shown
notes: mIgG2a of Ab53
B16: Ab53i6 (antibody, V domains shown)
VH: B1 VH with N35H, G50S, S53Y, G56S, M105L
VL: not shown
B17: Ab53 (Fab, V domains shown)
VH: B1 VH with G33S, N35H, G50S, G56S, M105L
VL: not shown
notes: clone from a phage library of monovalent human Fabs; also called clone Ab53
B18: Ab53 (Fab, V domains shown)
VH: B1 VH with G33S, N35H, G50S, G56S, M105L
VL: not shown
B19: Ab48i2 (antibody, V domains shown)
VH: B1 VH with G33S, G50N, S55G, G56S, N57S, K58T, Y59S
VL: not shown
notes: mIgG2a of Ab48

How the values were obtained:
[1] = molecular target: T1, His-tagged recombinant Human TIGIT; experiment: ELISA
Description: (§1) Binding affinities for antigen binding to anti-TIGIT monoclonal antibodies were determined by ELISA. […] Antibodies to be tested were diluted to 1 μM in PBS buffer containing 1% BSA and diluted 3-fold in a 10-point curve. […] Detection of the secondary antibody was determined using streptavidin-HRP and TMB reagent. All assays were performed at room temperature. Curve-fitting software was used to determine the EC₅₀ for each antibody.

[2] = molecular target: T2, His-tagged recombinant Mouse TIGIT; experiment: ELISA
Description: as §1

biotinylated human TIGIT [3] = molecular target: T3, biotinylated human TIGIT; experiment: comp. ELISA vs PVR
Description: (§2) Antibodies were serially diluted in a 10-point curve starting at 1 μM in 3-fold steps. […] Units are in microM.

mouse TIGIT-Fc [4] = molecular target: T4, mouse TIGIT-Fc; experiment: comp. ELISA vs PVR
Description: as §2

[5] = molecular target: T5, human TIGIT fused to a beta …; experiment: cell-based or functional assay
[6] = molecular target: T6, human TIGIT fused to a beta …; experiment: cell-based or functional assay
mouse TIGIT-Fc [7] = molecular target: T7, mouse TIGIT-Fc; experiment: competitive ELISA, mTIGIT-Fc to coated PVR
Description: as §2

biotinylated human TIGIT [8] = molecular target: T8, biotinylated human TIGIT; experiment: competitive ELISA, biotin-hTIGIT to coated PVR
Description: as §2

[9] = molecular target: T9, His-tagged recombinant Mouse TIGIT; experiment: ELISA
Description: as §1

[10] = molecular target: T10, human TIGIT expressed in YTS cells, …; experiment: cell-based or functional assay
mouse TIGIT-Fc [11] = molecular target: T11, mouse TIGIT-Fc; experiment: competitive ELISA vs coated PVR
Description: as §2

[12] = molecular target: T12, His-tagged recombinant Human TIGIT; experiment: ELISA
Description: as §1

[13] = molecular target: T13, biotinylated human TIGIT extra cellular …; experiment: competitive ELISA vs coated PVR
Description: as §2

[14] = molecular target: T6, human TIGIT fused to a beta …; experiment: cell-based or functional assay; remark: listed apart in the source
[15] = molecular target: T6, human TIGIT fused to a beta …; experiment: cell-based or functional assay; remark: listed apart in the source
[16] = molecular target: T6, human TIGIT fused to a beta …; experiment: cell-based or functional assay; remark: listed apart in the source

Row | Binder | EC50 [1] | EC50 [2] | IC50 (biotinylated human TIGIT [3]) | IC50 (mouse TIGIT-Fc [4]) | YTS_hTIGI/hGrbs_EFC_Agonism, 221_WT [5] | YTS_hTIGI/hGrbs_EFC_Antagonism, 221_hPVR/ICAM [5] | IC50 (mouse TIGIT-Fc [7]) | other results
1 | B1 | 0.3 nM | 37 nM | 2.7 nM | 78.8 nM | 0.0014 µM | 0.276 µM | – | –
2 | B2 | – | – | – | – | – | – | 64.7 nM | EC50 of induced dimerization (YTS_hTIGIT/hTIGIT, 11 pt) [6]: 477 nM; IC50 (biotinylated human TIGIT [8]): 111 nM
3 | B3 | 0.2 nM | 2.4 nM | 4.2 nM | 16.9 nM | 0.0358 µM | 0.238 µM | – | –
4 | B4 | – | – | – | – | – | – | – | EC50 [9]: 10.7 nM; YTS_hTIGI/hGrbs_EFC_Agonism (EC50) [10]: > 1000 nM; YTS_hTIGI/hGrbs_EFC_Antagonism (IC50) [10]: > 1000 nM; YTS_hTIGIT/hTIGIT_EFC (EC50) [10]: > 1000 nM; IC50 (mouse TIGIT-Fc [11]): 23.4 nM
5 | B5 | 0.8 nM | 6.3 nM | 8.3 nM | 18.5 nM | 0.0042 µM | > 1 µM | – | –
6 | B6 | – | – | – | – | – | – | – | EC50 [12]: 3.4 nM; EC50 [9]: 5.7 nM; YTS_hTIGI/hGrbs_EFC_Agonism (EC50) [10]: > 1000 nM; YTS_hTIGI/hGrbs_EFC_Antagonism (IC50) [10]: 60.2 nM; YTS_hTIGIT/hTIGIT_EFC (EC50) [10]: 4.7 nM; IC50 [13]: 20.3 nM; IC50 (mouse TIGIT-Fc [11]): 22 nM
7 | B7 | 0.2 nM | 0.2 nM | 1.9 nM | 1.5 nM | – | 0.0286 µM | – | –
8 | B8 | 0.2 nM | 7.6 nM | 3 nM | 121 nM | 0.0156 µM | 0.0163 µM | – | –
9 | B9 | – | – | – | – | – | – | 632 nM | IC50 (biotinylated human TIGIT [8]): 89.9 nM
10 | B10 | – | – | – | – | – | – | 22 nM | IC50 of inhibition of Grb2 recruitment (YTS_hTIGIT/hGrb2, 221_hPVR/ICAM, 11 pt) [14]: 60.2 nM; EC50 of induced dimerization (YTS_hTIGIT/hTIGIT, 11 pt) [15]: 4.7 nM; IC50 (biotinylated human TIGIT [8]): 20.3 nM
11 | B11 | – | – | – | – | – | – | 23.4 nM | –
12 | B12 | 0.1 nM | 0.2 nM | 0.6 nM | 1.5 nM | – | 0.0675 µM | – | –
13 | B13 | – | – | – | – | – | – | > 1000 nM | IC50 of inhibition of Grb2 recruitment (YTS_hTIGIT/hGrb2, 221_hPVR/ICAM, 11 pt) [16]: 2.3 nM; EC50 of induced dimerization (YTS_hTIGIT/hTIGIT, 11 pt) [6]: 9.5 nM; IC50 (biotinylated human TIGIT [8]): 3.8 nM
14 | B14 | 1.1 nM | 4.6 nM | 6.7 nM | 48.2 nM | 0.0185 µM | 0.45 µM | – | –
15 | B15 | 0.3 nM | 0.4 nM | 1.6 nM | 4.2 nM | – | 0.0259 µM | – | –
16 | B16 | 0.2 nM | 32.3 nM | 1.7 nM | > 1000 nM | 0.0077 µM | 0.0363 µM | – | –
17 | B17 | – | – | – | – | – | – | 35.3 nM | IC50 of inhibition of Grb2 recruitment (YTS_hTIGIT/hGrb2, 221_hPVR/ICAM, 11 pt) [16]: 30.3 nM; EC50 of induced dimerization (YTS_hTIGIT/hTIGIT, 11 pt) [6]: 2.7 nM; IC50 (biotinylated human TIGIT [8]): 9 nM
18 | B18 | 4.3 nM | 7.6 nM | 9 nM | 35.3 nM | – | 0.0303 µM | – | –
19 | B19 | 0.2 nM | 0.2 nM | 1.6 nM | 1.9 nM | – | 0.0068 µM | – | –
